The values below come from article doi:10.1101/639963.

By Kd is commonly meant the free concentration of one partner at which half of the binding sites on the other are occupied at equilibrium, for simple one-to-one binding.

Data set [1] addresses Myosin VI N-terminal tail fragment, large-insert isoform (NMVI_(TAIL(LI))). Kind of data set: FRET or BRET. In general terms: Bioluminescence resonance energy transfer reports proximity on the nanometre scale.
Data set [2] addresses Myosin VI N-terminal tail fragment, non-insert isoform (NMVI_(TAIL(NI))). Kind of data set: FRET or BRET.
Data set [3] has as its target Dab2 C-terminal region (residues 649-770) (UniProt P98082). Kind of data set: FRET or BRET.
In data set [4] the target is Myosin VI tail, large-insert isoform (MVI_(TAIL(LI))). The data set is described as follows: FRET or BRET.
The target of data set [5] is nuclear dot protein 52 (NDP52/CALCOCO2) (UniProt Q13137). Kind of data set: FRET or BRET.
Sequence of nuclear dot protein 52 (NDP52/CALCOCO2) (Q13137 whole entry, the tested form may be a part, canonical isoform): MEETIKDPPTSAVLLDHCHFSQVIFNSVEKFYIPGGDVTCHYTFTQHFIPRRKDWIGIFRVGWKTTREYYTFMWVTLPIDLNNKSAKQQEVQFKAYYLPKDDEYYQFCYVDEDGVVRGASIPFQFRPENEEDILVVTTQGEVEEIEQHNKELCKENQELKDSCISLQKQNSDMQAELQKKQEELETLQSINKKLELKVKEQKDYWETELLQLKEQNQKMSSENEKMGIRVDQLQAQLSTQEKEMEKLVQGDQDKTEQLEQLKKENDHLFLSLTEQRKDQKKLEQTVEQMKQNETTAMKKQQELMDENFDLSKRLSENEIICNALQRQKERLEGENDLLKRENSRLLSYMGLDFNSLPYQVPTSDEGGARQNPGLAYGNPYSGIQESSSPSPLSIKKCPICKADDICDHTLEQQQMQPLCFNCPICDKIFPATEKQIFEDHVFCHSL
Data set [6] has as its target Myosin VI tail, non-insert isoform (MVI_(TAIL(NI)), aa 814-1253). Kind of data set: FRET or BRET.
For data set [7], the target named is T1, Dab2 C-terminal region (myosin VI binding site) (Homo sapiens, UniProt P98082 649-770).
T1 sequence: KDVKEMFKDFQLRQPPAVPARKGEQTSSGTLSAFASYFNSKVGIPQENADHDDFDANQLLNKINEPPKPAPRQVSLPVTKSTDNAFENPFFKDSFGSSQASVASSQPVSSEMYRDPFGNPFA
Kind of data set: fluorescence anisotropy. In general terms: Polarisation of emitted light reports the rotation of a fluorescent probe.

The target of data set [8] is Myosin VI CBD (cargo-binding domain; non-insert isoform) (Homo sapiens, UniProt Q9UM54-5 1060-1253). The data set is described as follows: fluorescence anisotropy.

The molecule “Myosin VI C-terminal globular cargo binding domain (CBD) (domain or fragment)” came in with a Kd with 10 μM Dab2 in data set [1] of 6 µM. In data set [2], this molecule returned a Kd with 10 μM NDP52 of 4.1 µM.
For the molecule “Myosin VI tail, large-insert isoform (MVI_(TAIL(LI))) (domain or fragment)”, the Kd in data set [3] was determined as 3.5 µM. Besides, in data set [4], the Kd^DIMER with 20 μM Dab2 is 3.3 µM and the Kd^DIMER with 20 μM NDP52 was found to be 9.3 µM. In addition, the Kd in data set [5] was 17.3 µM.
For “Myosin VI tail, non-insert isoform (MVI_(TAIL(NI)), aa 814-1253) (domain or fragment)”, the dissociation constant Kd in data set [3] stood at 11.6 µM. Besides, in data set [6], the Kd^DIMER with 20 μM Dab2 is 5.3 µM and the Kd^DIMER with 20 μM NDP52 was 4.3 µM. In addition, the Kd in data set [5] is 2.1 µM.

B1: ds40 FAM-DNA (40 bp) (dsDNA)
DNA 1: TTAGTTGTTCGTAGTGCTCGTCTGGCTCTGGATTACCCGC
DNA 2: GCGGGTAATCCAGAGCCAGACGAGCACTACGAACAACTAA
Turning to B1, the binding result in data set [7] is “no binding”. In data set [8], this molecule gave a Kd of 0.14 µM.
